Paper PMC10397247

Experiments:
Assay in all cases: two-hybrid library CCmax;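 note: natural log of median RNA to DNA barcode read ratio; higher means stronger binding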
[1] = molecular target: T1, 4H2330-AA
T1 chain: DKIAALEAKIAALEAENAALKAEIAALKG

[2] = molecular target: T2, 4H2343-AA; conditions: mean of both orientations
T2 chain: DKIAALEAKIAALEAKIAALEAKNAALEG

[3] = molecular target: T3, 4H2389-AA; conditions: mean of both orientations
T3 chain: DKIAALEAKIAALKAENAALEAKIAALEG

[4] = molecular target: T4, 4H2438-AA; conditions: mean of both orientations
T4 chain: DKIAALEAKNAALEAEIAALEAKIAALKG

[5] = molecular target: T5, 4H2466-AA; conditions: mean of both orientations
T5 chain: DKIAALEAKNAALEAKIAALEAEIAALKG

[6] = molecular target: T6, 4H2473-AA; conditions: mean of both orientations
T6 chain: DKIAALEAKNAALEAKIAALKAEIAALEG

[7] = molecular target: T7, 4H249-AA; conditions: mean of both orientations
T7 chain: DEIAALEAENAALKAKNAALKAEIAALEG

[8] = molecular target: T8, 4H2592-AA; conditions: mean of both orientations
T8 chain: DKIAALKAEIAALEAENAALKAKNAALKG

[9] = molecular target: T9, 4H2649-AA; conditions: mean of both orientations
T9 chain: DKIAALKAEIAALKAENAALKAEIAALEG

[10] = molecular target: T10, 4H2698-AA; conditions: mean of both orientations
T10 chain: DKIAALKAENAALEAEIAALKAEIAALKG

[11] = molecular target: T11, 4H2725-AA; conditions: mean of both orientations
T11 chain: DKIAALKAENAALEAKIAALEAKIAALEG

[12] = molecular target: T12, 4H2732-AA; conditions: mean of both orientations
T12 chain: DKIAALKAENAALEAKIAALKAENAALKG

[13] = molecular target: T13, 4H2774-AA; conditions: mean of both orientations
T13 chain: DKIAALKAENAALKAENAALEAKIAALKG

[14] = molecular target: T14, 4H2865-AA; conditions: mean of both orientations
T14 chain: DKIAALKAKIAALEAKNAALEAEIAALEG

[15] = molecular target: T15, 4H2931-AA; conditions: mean of both orientations
T15 chain: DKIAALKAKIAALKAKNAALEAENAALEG

[16] = molecular target: T16, 4H3001-AA; conditions: mean of both orientations
T16 chain: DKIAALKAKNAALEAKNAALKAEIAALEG

[17] = molecular target: T17, 4H3009-AA; conditions: mean of both orientations
T17 chain: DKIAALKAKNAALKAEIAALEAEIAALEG

[18] = molecular target: T18, 4H3015-AA; conditions: mean of both orientations
T18 chain: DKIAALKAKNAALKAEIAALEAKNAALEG

[19] = molecular target: T19, 4H3016-AA; conditions: mean of both orientations
T19 chain: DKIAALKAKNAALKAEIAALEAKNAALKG

[20] = molecular target: T20, 4H3073-AA; conditions: mean of both orientations
T20 chain: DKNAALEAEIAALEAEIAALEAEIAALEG

[21] = molecular target: T21, 4H310-AA; conditions: mean of both orientations
T21 chain: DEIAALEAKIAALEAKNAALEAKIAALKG

[22] = molecular target: T22, 4H3120-AA; conditions: mean of both orientations
T22 chain: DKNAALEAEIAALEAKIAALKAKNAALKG

[23] = molecular target: T23, 4H3130-AA; conditions: mean of both orientations
T23 chain: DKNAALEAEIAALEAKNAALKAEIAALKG

[24] = molecular target: T24, 4H3165-AA; conditions: mean of both orientations
T24 chain: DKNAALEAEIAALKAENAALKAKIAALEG

[25] = molecular target: T25, 4H3381-AA; conditions: mean of both orientations
T25 chain: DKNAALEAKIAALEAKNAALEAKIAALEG

[26] = molecular target: T26, 4H3395-AA; conditions: mean of both orientations
T26 chain: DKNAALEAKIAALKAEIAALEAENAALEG

[27] = molecular target: T27, 4H3410-AA; conditions: mean of both orientations
T27 chain: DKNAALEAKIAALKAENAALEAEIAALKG

[28] = molecular target: T28, 4H3438-AA; conditions: mean of both orientations
T28 chain: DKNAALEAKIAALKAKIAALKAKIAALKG

[29] = molecular target: T29, 4H347-AA; conditions: mean of both orientations
T29 chain: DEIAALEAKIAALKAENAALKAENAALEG

[30] = molecular target: T30, 4H3590-AA; conditions: mean of both orientations
T30 chain: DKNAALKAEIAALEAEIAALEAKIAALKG

[31] = molecular target: T31, 4H3697-AA; conditions: mean of both orientations
T31 chain: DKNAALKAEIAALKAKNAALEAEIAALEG

[32] = molecular target: T32, 4H3753-AA; conditions: mean of both orientations
T32 chain: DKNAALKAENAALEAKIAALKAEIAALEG

[33] = molecular target: T33, 4H3865-AA; conditions: mean of both orientations
T33 chain: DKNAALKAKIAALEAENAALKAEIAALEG

[34] = molecular target: T34, 4H406-AA; conditions: mean of both orientations
T34 chain: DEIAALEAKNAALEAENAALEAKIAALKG

[35] = molecular target: T35, 4H452-AA; conditions: mean of both orientations
T35 chain: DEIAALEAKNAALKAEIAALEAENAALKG

[36] = molecular target: T36, 4H458-AA; conditions: mean of both orientations
T36 chain: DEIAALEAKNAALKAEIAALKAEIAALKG

[37] = molecular target: T37, 4H485-AA; conditions: mean of both orientations
T37 chain: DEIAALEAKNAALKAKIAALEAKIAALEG

[38] = molecular target: T38, 4H536-AA; conditions: mean of both orientations
T38 chain: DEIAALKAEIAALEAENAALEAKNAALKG

[39] = molecular target: T39, 4H56-AA; conditions: mean of both orientations
T39 chain: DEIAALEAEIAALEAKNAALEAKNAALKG

[40] = molecular target: T40, 4H570-AA; conditions: mean of both orientations
T40 chain: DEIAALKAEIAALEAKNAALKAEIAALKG

[41] = molecular target: T41, 4H629-AA; conditions: mean of both orientations
T41 chain: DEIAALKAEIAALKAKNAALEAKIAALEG

[42] = molecular target: T42, 4H710-AA; conditions: mean of both orientations
T42 chain: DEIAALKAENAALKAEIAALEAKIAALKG

[43] = molecular target: T43, 4H745-AA; conditions: mean of both orientations
T43 chain: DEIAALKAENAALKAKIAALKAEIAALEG

[44] = molecular target: T44, 4H797-AA; conditions: mean of both orientations
T44 chain: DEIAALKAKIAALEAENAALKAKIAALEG

[45] = molecular target: T45, 4H850-AA; conditions: mean of both orientations
T45 chain: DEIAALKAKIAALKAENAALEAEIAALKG

[46] = molecular target: T46, 4H891-AA; conditions: mean of both orientations
T46 chain: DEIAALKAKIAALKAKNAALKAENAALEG

[47] = molecular target: T47, 4H909-AA; conditions: mean of both orientations
T47 chain: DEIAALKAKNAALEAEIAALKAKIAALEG

[48] = molecular target: T48, 4H930-AA; conditions: mean of both orientations
T48 chain: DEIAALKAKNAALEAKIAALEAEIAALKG

[49] = molecular target: T49, 4H94-AA; conditions: mean of both orientations
T49 chain: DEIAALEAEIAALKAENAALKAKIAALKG

[50] = molecular target: T50, 4H_APH; conditions: mean of both orientations
T50 chain: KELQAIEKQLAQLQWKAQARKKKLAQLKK

[51] = molecular target: T51, 4H_BCR; conditions: mean of both orientations
T51 chain: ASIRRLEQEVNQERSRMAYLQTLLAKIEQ

[52] = molecular target: 4H_GCN4; conditions: mean of both orientations
Sequence of 4H_GCN4 (chain, as listed by the source): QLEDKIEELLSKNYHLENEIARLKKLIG

[53] = molecular target: GCN2_T; conditions: mean of both orientations

interaction score [1]: 2.14
interaction score [2]: -1.3
interaction score [3]: -0.00244
interaction score [4]: -0.853
interaction score [5]: -1.14
interaction score [6]: -0.502
interaction score [7]: -1.48
interaction score [8]: -0.144
interaction score [9]: 0.31
interaction score [10]: -1.05
interaction score [11]: -1.57
interaction score [12]: -1.45
interaction score [13]: -1.55
interaction score [14]: -0.443
interaction score [15]: -1.63
interaction score [16]: -1.21
interaction score [17]: -1.35
interaction score [18]: -1.54
interaction score [19]: -1.44
interaction score [20]: -1.5
interaction score [21]: -0.633
interaction score [22]: -1.29
interaction score [23]: 0.306
interaction score [24]: -1.39
interaction score [25]: -1.67
interaction score [26]: -1.56
interaction score [27]: 0.287
interaction score [28]: -1.59
interaction score [29]: -0.642
interaction score [30]: -1.06
interaction score [31]: -1.56
interaction score [32]: -1.31
interaction score [33]: 0.945
interaction score [34]: -0.544
interaction score [35]: -1.85
interaction score [36]: -1.07
interaction score [37]: -1.35
interaction score [38]: -1.33
interaction score [39]: -1.47
interaction score [40]: 0.717
interaction score [41]: -1.21
interaction score [42]: -1.49
interaction score [43]: -1.42
interaction score [44]: -0.788
interaction score [45]: 1.43
interaction score [46]: -1.54
interaction score [47]: -1.17
interaction score [48]: -1.22
interaction score [49]: 0.579
interaction score [50]: -2.24
interaction score [51]: -2.26
interaction score [52]: -1.88
interaction score [53]: -1.77
Binder: DKIAALEAKIAALEAENAALKAEIAALKG [4H2330-AA]
